Assay: label from the status in PepcDB records

MARMKARSGKGRRVARDTWKTKSWYEIRTPQSFGGDLLGTTPANDPSNLLGRVTETSLKDLTNDHSKHMVRLYFKVDGVAGNNATTQFVGHNTTREYLKSLVRRRRSKIVTITDIRTKDGYKIRVKAMVLTAVRARDHHKTDIRKKMEQIIVNMARNSTFPEFVQAMLLGGLGSKIYATCKRIMPMKRVEIYKSEVMEFGKSATPVVEAPAETEVKEEVKKEVVETQTE
protein production: failed

MARPAYRLLAYSLWDLIPIAMAVAHFAFVLWLVLDFHALSWWVILPAALLYAVSLSWSINSISHNQIHNAYFTPGWMNRGFDLLLSVTIGFSQTLYRDIHNRHHRGNSDLPDANGKTVDPLSIYLHGKDGQPDNPWAYTFLSFFRDDPKEIYQEMQRKRPDDARWVKVEIGVTVAFYLALALYDWHAVLVLLPFWYLGQSLSSLNGYYEHLGGNPDLPIAWGVSSYSPLYNLIWMNNGYHAEHHYRPKMHWTKVKAFHREIREQQRAAGVKVIPVSHGLGFLVAHRKV
protein production: failed

MARQSTKFSDKFLRALKPQEKPYDIREGDGFGVRVFPSGARSFFYMYHFDGKRRFLNLGKYPQLSLADARQKHRDAVSQHAKGIDPLAATQEQKRERREAITVADLIDEYVKNWAKVYKVERSATEDERALSKDVLPYWGKRKAKDIKRTDAIALLERIVRRGSPGQARNILKVGRKMYEFAIERKYVEANPFSRISKAVPATMPRTRSRVLTESEIKYIWSAIDKSAGSDETKRALKLILVTAQRPGEVIGMHRREIDGEWWTIPPERIKTEKDRTRSNSVGPQPHRVYLSPLALELIGDKDGYIFESPRGGAMDSKALSHVVHAAPLVPELVRDTEGHVFAGPCGPVAAKALMQLLEKEIAYPDKEKYYGLTRWTPHDLRRTARTRMSAINIPTRHAERVLNHTLPGIQKTYDLYRYDPQKKAALTKWAAYLEELLR
protein production: failed

MARRSICEERRQQAGAGQPRGRCSDWQRRQRTLRPDATPMPADGRPRCSCLFSLLLSDPDLWKSWMSSQTAAERELAELLVESLNLEDVQPADIDPEAPLFNTGLGLDSIDALELALAISKRYGFQLRSDNDENRRIFASLRALSAHVQANKTV
protein production: failed

MARSEGNRPRHRAVPQPSRIRKRLSRGVMTLVSVVALLMTGAGYWVAHGALGGITISQALTPEDPRSSGNNMNILLIGLDSRKDQEGNDLPWSVLKQLHAGDSDDGGYNTNTLILVHVGADGKVVAFSIPRDDWVPFTGVPGYNHIKIKEAYGLTKQYVAEQLANQGVSDRKELETRGREAARAATLRAVRSLTGVPIDYFAEINLAGFYDLAQTLGGVDVCLNHAVYDSYSGADFPAGRQRLNAAQALAFVRQRHGLDNGDLDRTHRQQAFLSSVMRELQDSGTFTNLDRLDNLMAVARKDVVLSAGWDEDLFRRMGDLAGGNVEFRTLPVVRYDNIDGQDVNIIDPTAIRAEVAAAFGSAPPTSQTAAAAKPNPSTVVDVVNAGSISGLASQVSGALLKRGYTAGQVRDRESGDPFTTAIEYGAGAETDAQNVADLLGIDAPNHPDPAVAPGHIRVTVDTNFSLPAPDEATAAATSTETSTYPLYGGGTTTDPTPDQGAPIDGGGVPCVN
protein production: failed

MARSFSLAKNPLFWQVAIAGIILDQLSKLWVSQAMDPVGTTWPLWSGVFHFTYVLNTGAAFSAFRGGAGWLKWLSLAVSVGLIIFAGKVPLRKLEQLGYGCILAGAVGNGIDRFLFGHVIDFLDFRLINFPIFNLADVSINIGIAALLWASFFPVSSRKVD
protein production: failed

MARTFRSLRNFNYRVWASGAIVSNIGTWMQRTAQDWLVLTELTHHNATAVGIVMSLQFGPQMLLLPLTGYAADHFNRRKLLFITQTAMGLLALGLGLMTVTGLVRLWHVYVFALLLGCVTAFDAPARQTFVSDLVGEEDLPNAVALNSTSFNGARMIGPAITGLLIASIGTGWVFLINALSFVPVIGALRMLRQHELHLKPPAQRSRGSFLEGFRYVWKRPDLKAALFMLFLIGTFGLNFPIFISTMSVSAFHAGAGQYGLLSSTMAIGSVTGTLLAARRARPRMAILVGAATIFGVGCMFGALMPNAVLFGLTLAVIGASTQTFTTSTNSLVQISTEPAMRGRVIAILLAIALGTTPLGAPVVGWVADRFGPRWALGVGAASGFAAALVGLFYLMRNRNLRFYIETGRLRYSIDKPRQTAFMAAPAASVPNVVMSKAEDE
protein production: failed

MARYRGAVERLERRFGVSLALKGERRLSGKSALDKRAYGPGQHGQRRAKTSDYGLQLKEKQKAKMMYGISEKQFRSIFVEANRLDGNTGENLIRLIERRLDNVVYRMGFATTRSSARQLVTHGHVLVDGKRLDIPSYFVRSGQKIEIKEKTKSNSQVVRAMELTAQTGIVPWIDVEKDKKYGIFTRYPEREEVVVPIEERLIVELYSK
protein production: failed

Reference: a protein production outcome set (Wang et al. 2014)
